# B1: G1: humanized monoclonal anti-CGRP antagonist antibody; heavy chain SEQ ID NO:11, light chain SEQ ID NO:12 (antibody)
# heavy: EVQLVESGGGLVQPGGSLRLSCAASGFTFSNYWISWVRQAPGKGLEWVAEIRSESDASATHYAEAVKGRFTISRDNAKNSLYLQMNSLRAEDTAVYYCLAYFDYGLAIQNYWGQGTLVTVSSASTKGPSVFPLAPCSRSTSESTAALGCLVKDYFPEPVTVSWNSGALTSGVHTFPAVLQSSGLYSLSSVVTVPSSNFGTQTYTCNVDHKPSNTKVDKTVERKCCVECPPCPAPPVAGPSVFLFPPKPKDTLMISRTPEVTCVVVDVSHEDPEVQFNWYVDGVEVHNAKTKPREEQFNSTFRVVSVLTVVHQDWLNGKEYKCKVSNKGLPSSIEKTISKTKGQPREPQVYTLPPSREEMTKNQVSLTCLVKGFYPSDIAVEWESNGQPENNYKTTPPMLDSDGSFFLYSKLTVDKSRWQQGNVFSCSVMHEALHNHYTQKSLSLSPGK
# light: EIVLTQSPATLSLSPGERATLSCKASKRVTTYVSWYQQKPGQAPRLLIYGASNRYLGIPARFSGSGSGTDFTLTISSLEPEDFAVYYCSQSYNYPYTFGQGTKLEIKRTVAAPSVFIFPPSDEQLKSGTASVVCLLNNFYPREAKVQWKVDNALQSGNSQESVTEQDSKDSTYSLSSTLTLSKADYEKHKVYACEVTHQGLSSPVTKSFNRGEC
# Experiments:
# [1] = target: T1, 38A (25-38A) human α-CGRP (Homo sapiens, UniProt P06881); test: Biacore affinity of G1 Fab to CGRP variant on chip; type: binding; conditions: 38A (25-38A) on chip, 37° C.
# T1 construct: 25-38A; 24; purchased GenScript Corporation, New Jersey or Global Peptide Services, Colorado
# Method: Biacore assay for affinity determination. […] All Biacore assays were conducted in HBS-EP running buffer (10 mM HEPES pH 7.4, 150 mM NaCl, 3 mM EDTA, 0.005% v/v polysorbate P20). CGRP surfaces were prepared by diluting the N-biotinylated CGRP to a concentration of less than 0.001 mg/mL into HBS-EP buffer and injecting it across the SA sensor chip using variable contact times. Low capacity surfaces, corresponding to capture levels <50 response units (RU) were used for high-resolution kinetic studies, whereas high capacity surfaces (about 800 RU of captured CGRP) were used for concentration studies, screening, and solution affinity determinations. […] Samples were typically injected for 1 minute at 100 μL/min and dissociation times of at least 10 minutes were allowed. After each binding cycle, surfaces were regenerated with 25 mM NaOH in 25% v/v ethanol, which was tolerated over hundreds of cycles. An entire titration series (typically generated in duplicate) was fit globally to a 1:1 Langmuir binding model using the BIAevaluation program. This returned a unique pair of association and dissociation kinetic rate constants (respectively, kon and koff) for each binding interaction, whose ratio gave the equilibrium dissociation constant (KD=koff/kon).
# [2] = system: CSD-sensitized central trigeminovascular neurons (HT, WDR) in the spinal trigeminal nucleus; test: Activation and sensitization of trigeminovascular neurons by cortical spreading depression (CSD); type: in vivo, rat; conditions: for mean firing rate of HT neurons after CSD: 6 hours after 30 mg/kg i.v.; for mean firing rate of HT neurons before CSD: 4 hours after 30 mg/kg i.v.
# Method: Cortical spreading depression (CSD) was induced mechanically by inserting a glass micropipette (tip diameter 25 μm) about 1 mm into the visual cortex for 10 sec. At a propagation rate of 3-5 mm/min, a single wave of CSD was expected to enter the neuronal receptive field within 1-2 min of cortical stimulation. For verification of CSD, cortical activity was recorded (electrocorticogram) with a glass micropipette (0.9% saline, ˜1 megohm, 7 um tip) placed just below the surface of the cerebral cortex (approximately 100 μm). The electrocorticogram electrode was positioned about 6 mm anterior to the visual cortex.
# It was diluted in saline to a final dose of 30 mg/kg and administered intravenously (bolus injection, total volume 0.6-0.7 ml). A corresponding human IgG2 isotype control antibody (isotype-conAb) was also diluted in saline to a final dose of 30 mg/kg and administered intravenously (bolus injection, total volume 1.6-2.0 ml).
# The experimental protocol included two parts. The first part was designed to compare CGRP-mAb vs isotype-conAb effects on spontaneous and induced activity of naïve trigeminovascular neurons, and the second part was designed to test CGRP-mAb vs isotype-conAb effects on the activation and sensitization of trigeminovascular neurons by CSD. Both parts included sampling of WDR and HT neurons in male and female rats. In the first part, the baseline neuronal profile was established by (a) mapping the dural, cutaneous and corneal receptive field; (b) measuring responses (mean spikes/sec) to mechanical stimulation of the dura (with a fixed force), skin (brush, pressure, pinch) and cornea (brush), and (c) measuring spontaneous firing rate (recorded over 30 min prior to treatment). Once the baseline was established, CGRP-mAb or isotype-conAb were administered and receptive fields were remapped, neuronal responses to stimulation of the dura, skin and cornea were re-examined, and the spontaneous activity rate was re-sampled at 1, 2, 3, and 4 hours post-treatment. The resulting values for each measure were then compared with the respective baseline values obtained before treatment. In the second part, CSD was induced 4 hours after administration of CGRP-mAb or isotype-conAb and 2 hours later (i.e., 6 hours after treatment) receptive field size, spontaneous activity rate, and response magnitude to stimulation of the dura, skin and cornea were measured again. The resulting post-CSD values for each measure were then compared with the respective pre-CSD values obtained at the 4-hour post-treatment time. This part was initiated only in cases in which the physiological condition of the rats (heart rate, blood pressure, respiration, end tidal CO2) and the neuronal isolation signal (signal-to-noise ratio ≥1:3) were stable at the 4-hour post-treatment time point.
# To calculate the response magnitude to each stimulus, the mean firing frequency occurring before the onset of the first stimulus (30 min for spontaneous activity, 10 sec for mechanical stimulation of the dura, skin and cornea) was subtracted from the mean firing frequency that occurred throughout the duration of each stimulus. […] A neuron was considered activated when its mean firing rate after CSD exceeded its mean baseline activity by 2 standard deviations of that mean for a period >10 min, which translated to ≥33% increase in activity. […] Mean firing rates of respective values were compared using nonparametric statistics (Wilcoxon signed-ranks test). Two-tailed level of significance was set at 0.05.
# [3] = male and female rats, case-by-case analysis
molecule,measurement,setting,value
B1,KD (nM),[1],No binding detected
same,difference between CGRP-mAb and isotype-conAb in HT neurons activated by CSD,[2]; case-by-case analysis,86%
same,difference between CGRP-mAb and isotype-conAb in WDR neurons activated by CSD,[2]; case-by-case analysis,2%
same,HT neurons with expansion of dural receptive fields after CSD (number/total),[2]; female rats,0/6
same,HT neurons with expansion of facial receptive fields after CSD (number/total),[2]; female rats,0/6
same,response of HT neurons to dural indentation with VFH before CSD,[2]; female rats,10.5±1.6 spikes/sec
same,response of HT neurons to brushing the cornea after CSD vs before,"[2]; female rats, 6 HT neurons, p=0.51",remained unchanged
same,mean firing rate of HT neurons after CSD,"[2]; female rats, 2 hours after CSD",5.0±3.4 spikes/sec
same,response of HT neurons to dural indentation with VFH after CSD,"[2]; female rats, 2 hours after CSD, 6 hours after administration",8.1±6.4 spikes/sec
same,mean firing rate of HT neurons before CSD,[2]; female rats,3.3±1.7 spikes/sec
same,"neuronal responses of HT neurons to brush, pressure and pinch after CSD vs before","[2]; male and female rats, 2 hours after CSD, 6 hours after administration",remained unchanged
same,HT neurons activated by CSD (number/total),[2]; [3],2/14
same,WDR neurons activated by CSD (number/total),[2]; [3],5/13
same,HT neurons with expansion of dural receptive fields after CSD (number/total),[2]; male rats,2/8
same,HT neurons with expansion of facial receptive fields after CSD (number/total),[2]; male rats,2/8
same,response of HT neurons to corneal stimulation after CSD,[2]; male rats,9.4±1.8 spikes/sec
same,response of HT neurons to corneal stimulation before CSD,[2]; male rats,10.8±3.3 spikes/sec
same,response of HT neurons to dural indentation with VFH before CSD,[2]; male rats,1.8±0.6 spikes/sec
same,mean firing rate of HT neurons after CSD,"[2]; male rats, 2 hours after CSD",1.9±1.5 spikes/sec
same,response of HT neurons to dural indentation with VFH after CSD,"[2]; male rats, 2 hours after CSD, 6 hours after administration",1.9±1.5 spikes/sec
same,mean firing rate of HT neurons before CSD,[2]; male rats,1.2±0.6 spikes/sec

# Reference: patent US20190071490A1, “Preventing Post-Ictal Headaches” (Beth Israel Deaconess Medical Center, Inc., priority 2017, published 2019)
